Results published in patent US20160222130A1 (Astellas, published 2016).

Experiments:
Assay in all cases: ELISA; Tie2-Fc coated at 1 ug/mL, chemiluminescence
[1] = biological target: T1, Human Tie2 (1-452)r4-Fc (human, UniProt Q02763 23-452)
T1 construct: range 1-452
Experimental: (§1) The next day, the immobilized solution was removed, and the plate was washed with a TBS-T solution, and incubated for 60 minutes by the addition of 50 μL of a Blocker™ Casein in TBS (Thermo Fisher Scientific Inc., 37532) to perform blocking. The resultant was washed with a TBS-T solution, and TIE-1-Igγ1-LALA, diluted with 0.05% Tween 20 (Nacalai Tesque Inc., 28353-85)—containing Blocker™ Casein in TBS from 0.03 ng/mL to 100 ng/mL through eight steps, was added thereto in the amount of 20 μL per well. The resultant was incubated at room temperature for 90 minutes and then washed with a TBS-T solution three times, and 20 μL of a biotin-labeled anti-human kappa light chain antibody, which had been diluted to 0.1 μg/mL with 0.05% Tween 20-containing Blocker™ Casein in TBS, was added thereto. The resultant was incubated at room temperature for 60 minutes and then washed with a TBS-T solution three times, and 20 μL of alkaline phosphatase-labeled streptavidin, which had been diluted to 0.1 μg/mL with 0.05% Tween 20-containing Blocker™ Casein in TBS, was added thereto. The resultant was incubated at room temperature for 60 minutes and then washed with a TBS-T solution three times, and 50 μL of Chemiluminescent Ultra Sensitive AP Microwell and/or Membrane Substrate (450 nm), which had been 5-fold diluted with 1 mM MgCl₂-containing 20 mM TBS (pH 9.8) as a substrate, was added thereto. The resultant was incubated at room temperature under light-shielding for 40 minutes, and then luminescent intensity thereof was measured with an EnVision™ multi-label counter. The EC₅₀ value of TIE-1-Igγ1-LALA with respect to the human Tie2 (1-452)-Fc chimeric protein and 23 mutant proteins thereof were calculated. The relative value of luminescent intensity of 100 ng/mL TIE-1-Igγ1-LALA as maximum concentration point with respect to human Tie2 (1-452)-Fc chimeric protein and 23 mutant proteins thereof when the convergence value of the sigmoid curve of TIE-1-Igγ1-LALA binding to the human Tie2 (1-452)-Fc chimeric protein which was taken as 100% was calculated (Table 8 and Table 9). Further, the EC₅₀ value and the convergence value were calculated by Sigmoid-Emax model non-linear regression analysis.

[2] = biological target: T2, Human Tie2 (1-452)c1-Fc (human, UniProt Q02763 23-452)
T2 construct: range 1-452
Experimental: as §1

[3] = biological target: T3, Human Tie2 (1-452)r2-Fc (human, UniProt Q02763 23-452)
T3 construct: range 1-452
Experimental: as §1

[4] = biological target: T4, Human Tie2 (1-452)g4-Fc (human, UniProt Q02763 23-452)
T4 construct: range 1-452
Experimental: as §1

[5] = biological target: T5, Human Tie2 (1-452)m3-Fc (human, UniProt Q02763 23-452)
T5 construct: range 1-452
T5 sequence (Q02763 other isoform, or with tags, fused parts or gaps limits assumed, form in doubt): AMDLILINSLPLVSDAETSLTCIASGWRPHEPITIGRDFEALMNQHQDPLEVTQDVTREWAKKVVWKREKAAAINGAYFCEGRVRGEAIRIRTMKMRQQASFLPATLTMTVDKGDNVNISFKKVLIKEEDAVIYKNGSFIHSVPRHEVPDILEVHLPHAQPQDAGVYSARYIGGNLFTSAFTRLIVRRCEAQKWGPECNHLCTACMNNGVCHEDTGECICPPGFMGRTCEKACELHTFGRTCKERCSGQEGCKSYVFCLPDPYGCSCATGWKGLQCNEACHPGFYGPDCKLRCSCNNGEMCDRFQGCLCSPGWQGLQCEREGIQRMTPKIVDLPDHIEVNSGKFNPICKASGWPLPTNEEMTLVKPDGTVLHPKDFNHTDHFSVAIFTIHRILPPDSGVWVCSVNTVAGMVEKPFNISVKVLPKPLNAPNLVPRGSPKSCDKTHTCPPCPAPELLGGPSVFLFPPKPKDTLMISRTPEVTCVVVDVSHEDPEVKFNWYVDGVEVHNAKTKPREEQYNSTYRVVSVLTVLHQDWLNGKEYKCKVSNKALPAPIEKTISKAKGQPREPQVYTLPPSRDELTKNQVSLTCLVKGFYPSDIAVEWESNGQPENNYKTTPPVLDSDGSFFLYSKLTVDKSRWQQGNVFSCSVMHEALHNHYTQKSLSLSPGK
Experimental: as §1

[6] = biological target: T6, Human Tie2 (1-452)g2-Fc (human, UniProt Q02763 23-452)
T6 construct: range 1-452
T6 sequence (Q02763 other isoform, or with tags, fused parts or gaps limits assumed, form in doubt): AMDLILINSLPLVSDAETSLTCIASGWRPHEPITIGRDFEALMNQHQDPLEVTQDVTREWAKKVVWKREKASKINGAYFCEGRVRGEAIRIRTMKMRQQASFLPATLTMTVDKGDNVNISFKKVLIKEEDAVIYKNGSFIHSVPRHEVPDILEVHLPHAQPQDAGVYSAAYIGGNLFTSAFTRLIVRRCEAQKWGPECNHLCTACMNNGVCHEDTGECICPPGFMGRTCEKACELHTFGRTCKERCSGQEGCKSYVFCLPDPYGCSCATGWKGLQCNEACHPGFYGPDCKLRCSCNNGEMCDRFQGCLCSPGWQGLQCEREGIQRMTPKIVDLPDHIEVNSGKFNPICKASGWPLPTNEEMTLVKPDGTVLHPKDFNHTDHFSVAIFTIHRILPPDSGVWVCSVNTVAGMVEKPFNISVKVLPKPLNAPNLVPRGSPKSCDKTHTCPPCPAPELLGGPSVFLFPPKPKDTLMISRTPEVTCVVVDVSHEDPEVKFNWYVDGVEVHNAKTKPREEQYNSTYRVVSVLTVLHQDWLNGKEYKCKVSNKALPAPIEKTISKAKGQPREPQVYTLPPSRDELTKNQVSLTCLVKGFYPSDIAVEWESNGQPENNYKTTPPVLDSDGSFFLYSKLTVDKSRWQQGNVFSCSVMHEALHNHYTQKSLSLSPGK
Experimental: as §1

[7] = biological target: T7, human Tie2 (1-452)-Fc chimeric protein (human, UniProt Q02763 23-452)
T7 construct: range 1-452; The stated range 1-452 begins at residue 1 of the precursor
T7 sequence (Q02763 other isoform, or with tags, fused parts or gaps mutant limits assumed, form in doubt): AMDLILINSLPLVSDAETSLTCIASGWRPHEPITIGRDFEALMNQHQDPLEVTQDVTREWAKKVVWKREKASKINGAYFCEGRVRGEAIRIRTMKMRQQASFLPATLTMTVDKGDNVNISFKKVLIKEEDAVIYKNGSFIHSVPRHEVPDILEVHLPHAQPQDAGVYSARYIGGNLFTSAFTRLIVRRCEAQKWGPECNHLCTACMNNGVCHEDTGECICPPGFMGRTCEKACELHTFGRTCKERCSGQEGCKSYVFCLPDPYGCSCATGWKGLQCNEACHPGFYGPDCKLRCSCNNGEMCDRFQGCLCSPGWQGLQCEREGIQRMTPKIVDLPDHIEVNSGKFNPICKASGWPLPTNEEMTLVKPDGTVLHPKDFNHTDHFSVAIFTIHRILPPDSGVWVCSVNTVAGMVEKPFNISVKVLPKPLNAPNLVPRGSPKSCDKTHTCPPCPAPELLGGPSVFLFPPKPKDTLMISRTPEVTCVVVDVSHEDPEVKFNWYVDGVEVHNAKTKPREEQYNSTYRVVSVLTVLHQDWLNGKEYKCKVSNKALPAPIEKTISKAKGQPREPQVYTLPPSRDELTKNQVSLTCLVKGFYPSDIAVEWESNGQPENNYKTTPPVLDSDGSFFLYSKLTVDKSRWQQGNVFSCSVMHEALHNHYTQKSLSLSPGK
Experimental: as §1

[8] = biological target: T8, Human Tie2 (1-452)g5-Fc (human, UniProt Q02763 23-452)
T8 construct: range 1-452
Experimental: as §1

[9] = biological target: T9, Human Tie2 (1-452)r6-Fc (human, UniProt Q02763 23-452)
T9 construct: range 1-452
Experimental: as §1

[10] = biological target: T10, Human Tie2 (1-452)y1-Fc (human, UniProt Q02763 23-452)
T10 construct: range 1-452
Experimental: as §1

[11] = biological target: T11, Human Tie2 (1-452)g1-Fc (human, UniProt Q02763 23-452)
T11 construct: range 1-452
T11 sequence (Q02763 other isoform, or with tags, fused parts or gaps limits assumed, form in doubt): as the sequence (Q02763 other isoform, or with tags, fused parts or gaps mutant limits assumed, form in doubt) above, with I172A, N175A, L176A counted along it
Experimental: as §1

[12] = biological target: T12, Human Tie2 (1-452)g3-Fc (human, UniProt Q02763 23-452)
T12 construct: range 1-452
Experimental: as §1

[13] = biological target: T13, Human Tie2 (1-452)r3-Fc (human, UniProt Q02763 23-452)
T13 construct: range 1-452
T13 sequence (Q02763 other isoform, or with tags, fused parts or gaps limits assumed, form in doubt): as the sequence (Q02763 other isoform, or with tags, fused parts or gaps mutant limits assumed, form in doubt) above, with R145A counted along it
Experimental: as §1

[14] = biological target: T14, Human Tie2 (1-452)r5-Fc (human, UniProt Q02763 23-452)
T14 construct: range 1-452
Experimental: as §1

[15] = biological target: T15, Human Tie2 (1-452)r1-Fc (human, UniProt Q02763 23-452)
T15 construct: range 1-452
Experimental: as §1

[16] = biological target: T16, Human Tie2 (1-452)g6-Fc (human, UniProt Q02763 23-452)
T16 construct: range 1-452
Experimental: as §1

T1 sequence (Q02763 other isoform, or with tags, fused parts or gaps limits assumed, form in doubt): as the sequence (Q02763 other isoform, or with tags, fused parts or gaps mutant limits assumed, form in doubt) above, with H146A counted along it

EC50 [1]: 1 ng/mL
EC50 [2]: 1 ng/mL
EC50 [3]: 0.9 ng/mL
EC50 [4]: 18 ng/mL
EC50 [5]: 1 ng/mL
EC50 [6]: 5.5 ng/mL
EC50 [7]: 1.1 ng/mL
EC50 [8]: 2.2 ng/mL
EC50 [9]: 1 ng/mL
EC50 [10]: 1 ng/mL
EC50 [11]: 12.3 ng/mL
EC50 [12]: 1.1 ng/mL
EC50 [13]: 1 ng/mL
EC50 [14]: 1 ng/mL
EC50 [15]: 1.1 ng/mL
EC50 [16]: 1.3 ng/mL
B1: TIE-1-Igγ1-LALA (antibody, human IgG1, kappa, L234A L235A)
heavy: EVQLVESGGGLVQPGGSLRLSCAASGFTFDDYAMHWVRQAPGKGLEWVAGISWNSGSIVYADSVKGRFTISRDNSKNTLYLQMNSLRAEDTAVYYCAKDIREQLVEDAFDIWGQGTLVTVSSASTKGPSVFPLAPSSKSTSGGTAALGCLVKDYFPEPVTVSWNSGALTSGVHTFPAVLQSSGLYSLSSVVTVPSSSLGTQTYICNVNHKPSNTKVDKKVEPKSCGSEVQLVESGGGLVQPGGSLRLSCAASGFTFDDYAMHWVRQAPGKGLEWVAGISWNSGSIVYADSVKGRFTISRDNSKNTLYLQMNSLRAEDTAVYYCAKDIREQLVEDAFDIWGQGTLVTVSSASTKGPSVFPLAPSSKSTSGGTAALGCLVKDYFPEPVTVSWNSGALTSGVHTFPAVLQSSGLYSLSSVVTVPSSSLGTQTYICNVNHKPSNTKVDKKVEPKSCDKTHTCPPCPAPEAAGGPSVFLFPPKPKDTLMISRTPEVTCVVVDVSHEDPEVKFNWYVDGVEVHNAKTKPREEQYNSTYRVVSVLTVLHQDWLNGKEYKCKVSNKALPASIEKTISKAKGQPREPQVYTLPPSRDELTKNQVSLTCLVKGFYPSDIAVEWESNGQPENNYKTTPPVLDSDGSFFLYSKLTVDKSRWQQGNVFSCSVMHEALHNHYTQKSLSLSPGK
light: DIQMTQSPSSLSASVGDRVTITCRSSQSLLHSHRYNYLDWYQQKPGKAPKLLIYLGSNRASGVPSRFSGSGSGTDFTLTISSVQPEDFATYYCMQTLQTPLTFGQGTKVEIKRTVAAPSVFIFPPSDEQLKSGTASVVCLLNNFYPREAKVQWKVDNALQSGNSQESVTEQDSKDSTYSLSSTLTLSKADYEKHKVYACEVTHQGLSSPVTKSFNRGEC
notes: Tandem tetravalent format: two heavy chains (VH-CH1-linker-VH-CH1-CH2-CH3) and four light chains; also called tetravalent anti-human Tie2 antibody with L234A, L235A and P331S
